Test [1] concerns the target T1, CD38 on CD38-positive cells (human, UniProt P28907 1-300).
T1 construct: whole, on cells; also called CD38 on H211, SU-DHL-6, Daudi, Ramos (Romas), Raji, SU-DHL-1, DU145, H157 cells
The test is described as follows: flow cytometry on NCI-H211 cells (small cell lung cancer), MFI against antibody concentration [table, row NCI-H211]. (A flow cytometer gives signals particle by particle.)

Test [2] concerns the target T1, CD38 on CD38-positive cells. The test is described as follows: cell-based or functional assay.
Test [3] has as its target T2, rhesus macaque erythrocytes (rhesus macaque).
T2 chain: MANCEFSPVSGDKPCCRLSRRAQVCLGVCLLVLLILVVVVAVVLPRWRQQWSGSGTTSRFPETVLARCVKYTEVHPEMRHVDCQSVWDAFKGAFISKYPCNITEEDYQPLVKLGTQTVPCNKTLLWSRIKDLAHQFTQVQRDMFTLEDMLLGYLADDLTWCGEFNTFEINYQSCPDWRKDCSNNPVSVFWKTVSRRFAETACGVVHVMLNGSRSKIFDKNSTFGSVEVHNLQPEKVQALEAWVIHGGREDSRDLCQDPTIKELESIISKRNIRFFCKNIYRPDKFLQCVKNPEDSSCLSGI
The test is described as follows: flow cytometry on rhesus macaque erythrocytes.

The target in another test is FcγRIIIa(F176) (UniProt P08637 17-208, limits assumed). The experiment in a line: kinetics, FcγRIIIa as ligand, antibody as analyte.
In the next test the target is FcγRIIIa (V176) (UniProt P08637 17-208, limits assumed). The experiment in a line: kinetics, FcγRIIIa as ligand, antibody as analyte.
Test [4] deals with T3, recombinant extracellular domain of CD38 (human, UniProt P28907 43-300).
T3 construct: also called CD38 extracellular domain; AtaGenix ATMP00140HU
The test is described as follows: Biacore SPR. (In general: SPR reads the build-up and loss of mass on a sensor chip optically.)

Test [5] concerns the target T3, recombinant extracellular domain of CD38. The test is described as follows: Biacore SPR. The source holds these as a separate data set.
Test [6] addresses T4, mouse CD38 antigen protein (mouse, UniProt P56528 45-304, limits assumed).
T4 construct: also called mouse antigen
T4 sequence (looked up): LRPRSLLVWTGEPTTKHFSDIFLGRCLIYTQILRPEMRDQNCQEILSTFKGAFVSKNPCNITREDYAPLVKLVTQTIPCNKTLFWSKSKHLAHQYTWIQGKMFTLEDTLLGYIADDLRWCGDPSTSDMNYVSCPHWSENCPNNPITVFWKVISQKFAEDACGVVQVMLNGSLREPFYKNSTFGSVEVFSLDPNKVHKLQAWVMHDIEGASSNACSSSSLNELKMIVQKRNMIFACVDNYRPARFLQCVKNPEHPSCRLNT
The test is described as follows: ELISA on coated mouse CD38 antigen (1 µg/mL) [panel Mouse CD38]. In general terms: ELISA stands for enzyme-linked immunosorbent assay.
Protocol: (§1) The cross-reactivity of the antibodies between CD38 antigen proteins of different species was measured using Elisa. Coating was performed with CD38 antigens of different species (human, cynomolgus, mouse, and rat) (1 μg/mL, 50 mL/well), and incubation was performed overnight at 2-8° C.

The next test addresses T5, rat CD38 antigen protein (rat, UniProt Q64244 45-303, limits assumed).
T5 construct: also called rat antigen
T5 sequence (looked up): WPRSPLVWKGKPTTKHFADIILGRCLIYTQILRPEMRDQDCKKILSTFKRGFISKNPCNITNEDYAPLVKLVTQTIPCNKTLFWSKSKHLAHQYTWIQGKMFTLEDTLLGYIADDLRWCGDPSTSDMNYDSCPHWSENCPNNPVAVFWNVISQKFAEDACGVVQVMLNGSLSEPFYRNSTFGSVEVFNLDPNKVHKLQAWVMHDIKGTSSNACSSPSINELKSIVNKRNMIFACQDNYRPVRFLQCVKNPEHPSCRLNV
The test is described as follows: ELISA on coated rat CD38 antigen (1 µg/mL) [panel Rat CD38].

Test [7] deals with T1, CD38 on CD38-positive cells. The experiment in a line: flow cytometry on CD38-positive H211 cells.
Test [8] has the same target. The test is described as follows: flow cytometry on SU-DHL-6 cells (B cell lymphoma), MFI against antibody concentration [table, row SU-DHL-6].

Like-named read-outs stand apart in the source and are kept apart here.

For orientation: EC50 means the concentration giving half of the maximal effect. As a reminder, the Kd is the concentration at which binding is half-saturated. The koff is the first-order rate constant of dissociation. One may read the kon as the second-order rate constant of association.

Chain of FcγRIIIa (V176) (P08637 17-208 F176V limits assumed): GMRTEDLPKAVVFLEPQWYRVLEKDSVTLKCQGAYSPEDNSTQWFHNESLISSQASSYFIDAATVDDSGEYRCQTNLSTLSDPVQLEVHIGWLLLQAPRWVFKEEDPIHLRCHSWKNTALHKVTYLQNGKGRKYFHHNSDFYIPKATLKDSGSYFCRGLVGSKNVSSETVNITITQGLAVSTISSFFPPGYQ
Chain of FcγRIIIa(F176) (P08637 17-208 limits assumed): as the sequence (P08637 17-208 F176V limits assumed) above, with V160F counted along it
Protocol for rat CD38 antigen protein: as §1

B1: FTL004-1 (antibody, human IgG1, kappa)
heavy: not shown
light: DIVLTQSPASLAVSPGQRATITCRASESVDNFGITFMHWYQQKPGQPPKLLIYRASNLESGVPARFSGSGSRTDFTLTINPVEANDTANYYCQQSSKDPRTFGQGTKLEIKRTVAAPSVFIFPPSDEQLKSGTASVVCLLNNFYPREAKVQWKVDNALQSGNSQESVTEQDSKDSTYSLSSTLTLSKADYEKHKVYACEVTHQGLSSPVTKSFNRGEC
notes: copies: 2 + 2
For the molecule B1, the EC50 in test [1] worked out at 0.555 µg/mL. In test [2], the “Rate of apoptosis (%), Daudi cells” value was determined as 40.9%; the “Rate of apoptosis (%), Raji cells” value stood at 7.14%; the “Rate of apoptosis (%), Romas cells” value is 64.2%; the “Rate of apoptosis (%), SU-DHL-6 cells” value is 21.2%. This molecule yielded an EC50 in [3] of 2 to 5 µg/mL. In the test with FcγRIIIa(F176), this molecule registered a Kd of 19.5 nM. Further, in the test with FcγRIIIa (V176), binding was put at a Kd of 29.5 nM, the koff was determined as 0.0229 s⁻¹ and the kon is 778000 M⁻¹ s⁻¹.

B2: H2 antibody (antibody, V domains shown)
VH: EVQLQESGAELVRSGASVKMSCKASGYTFTDYNVHWIKQTPGQGLEWIGYFYPRNGATHYNQKFTGKATLTADTSSSTAYIQISSLTSEDSAVYFCARGETPGTFPYWGQGTLVTVSA
VL: DIVLTQSPASLTVSLGQRATISCRASESVDNFGITFMHWYQQKPGQPPKLLIYRASNLESGIPARFSGSGSRTDFTLTIDPVETDDVATYYCQQSSKDPRTFGGGTKLEIK
notes: Murine monoclonal antibody from a BALB/c hybridoma; also called H2 mAb; Hybridoma-2
Regarding B2, the Kd in [4] came to 14.6 nM; in test [5], 2.02 nM. The figures for the koff in [4] and in test [5] were 0.000969 s⁻¹ and 0.0005 s⁻¹, respectively. Further, the values for the kon in [4] and in test [5] were 66100 M⁻¹ s⁻¹ and 248000 M⁻¹ s⁻¹, respectively. For the same molecule, the binding result (in test [6]; in the test with rat CD38 antigen protein) was “no binding (tested: 300 µg/ml)” throughout.

B3: Daratumumab (antibody, V domains shown)
VH: EVQLLESGGGLVQPGGSLRLSCAVSGFTFNSFAMSWVRQAPGKGLEWVSAISGSGGGTYYADSVKGRFTISRDNSKNTLYLQMNSLRAEDTAVYFCAKDKILWFGEPVFDYWGQGTLVTVSS
VL: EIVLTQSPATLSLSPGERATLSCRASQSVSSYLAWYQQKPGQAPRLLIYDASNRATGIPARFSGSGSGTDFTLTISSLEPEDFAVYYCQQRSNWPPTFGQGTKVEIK
Consider B3, for which, in test [4], the Kd was determined as 12.2 nM, the koff came to 0.00363 s⁻¹ and the kon is 297000 M⁻¹ s⁻¹. Besides, in test [5], the dissociation constant (Kd) is 1.96 nM, the koff is 0.000355 s⁻¹ and the kon is 181000 M⁻¹ s⁻¹. In [7], this molecule yielded an EC50 of 1.94 µg/mL. In test [2], the “Rate of apoptosis (%), Daudi cells” value turned out to be 10.6%; the “Rate of apoptosis (%), Raji cells” value worked out at 5.73%; the “Rate of apoptosis (%), Romas cells” value was determined as 9.78%; the “Rate of apoptosis (%), SU-DHL-6 cells” value was 10.4%. The same molecule had an EC50 in test [8] of 0.548 µg/mL.

These data come from patent publication US20240400711A1 (SOUND BIOPHARMACEUTICALS, published 2024).
